Source: the supplement of paper PMC10567573

B1: SOAT2 (parent)
chain: SLGKQKVFIIRKSLLDELMEVQHF

Variants of: B1
Test: protein stability index of a GFP-peptide fusion (GPS, HEK-293T) (PSI 1-6); higher = more stable
Conditions: c terminus: a fixed tail appended
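Also: lentivirally expressed fusions sorted by FACS into six bins by GFP to DsRed ratio, PSI derived from sequencing read proportions per bin multiplied by bin number.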

| Variant | protein stability index |
| --- | --- |
| SLGKQKVFIIRKSLLDELMEVPHF | 1.79 |
| SLGKQKVFIIRKSLLDELMEVFHF | 2.2 |
| SLGKQKVFIIRKSLLDELMEVYHF | 2.55 |
| SLGKQKVFIIRKSLLDELMEVVHF | 1.49 |
| SLGKQKVFIIRKSLLDELMEVAHF | 2.4 |
| SLGKQKVFIIRKSLLDELMEVTHF | 3.05 |
| SLGKQKVFIIRKSLLDELMEVMHF | 2.09 |
| SLGKQKVFIIRKSLLDELMEVRHF | 3.46 |
| SLGKQKVFIIRKSLLDELMEVLHF | 2.24 |
| SLGKQKVFIIRKSLLDELMEVDHF | 1.91 |
| SLGKQKVFIIRKSLLDELMEVSHF | 1.68 |
| SLGKQKVFIIRKSLLDELMEVHHF | 1.91 |
| SLGKQKVFIIRKSLLDELMEVEHF | 2.74 |
| SLGKQKVFIIRKSLLDELMEVNHF | 2.22 |
| SLGKQKVFIIRKSLLDELMEVCHF | 2.01 |
| SLGKQKVFIIRKSLLDELMEVKHF | 2.35 |
| SLGKQKVFIIRKSLLDELMEVGHF | 3.24 |
| SLGKQKVFIIRKSLLDELMEVWHF | 2.77 |
| SLGKQKVFIIRKSLLDELMEQQHF | 4 |
| SLGKQKVFIIRKSLLDELMETQHF | 1.93 |
| SLGKQKVFIIRKSLLDELMEDQHF | 1.74 |
| SLGKQKVFIIRKSLLDELMEYQHF | 2.38 |
| SLGKQKVFIIRKSLLDELMENQHF | 2 |
| SLGKQKVFIIRKSLLDELMEPQHF | 2.16 |
| SLGKQKVFIIRKSLLDELMEAQHF | 3.1 |

| Variant | protein stability index |
| --- | --- |
| SLGKQKVFIIRKSLLDELMERQHF | 2.92 |
| SLGKQKVFIIRKSLLDELMEWQHF | 2.46 |
| SLGKQKVFIIRKSLLDELMECQHF | 3.18 |
| SLGKQKVFIIRKSLLDELMEGQHF | 1.77 |
| SLGKQKVFIIRKSLLDELMEEQHF | 1.99 |
| SLGKQKVFIIRKSLLDELMEIQHF | 3.07 |
| SLGKQKVFIIRKSLLDELMEKQHF | 2.08 |
| SLGKQKVFIIRKSLLDELMELQHF | 2 |
| SLGKQKVFIIRKSLLDELMESQHF | 2.63 |
| SLGKQKVFIIRKSLLDELMEHQHF | 2.23 |
| SLGKQKVFIIRKSLLDELMEFQHF | 2.85 |
| SLGKQKVFIIRKSLLDELMEMQHF | 1.89 |
| SLGKQKVFIIRKSLLDELMEVQHL | 2.18 |
| SLGKQKVFIIRKSLLDELMEVQHI | 2.9 |
| SLGKQKVFIIRKSLLDELMEVQHN | 1.9 |
| SLGKQKVFIIRKSLLDELMEVQHT | 1.8 |
| SLGKQKVFIIRKSLLDELMEVQHW | 2.78 |
| SLGKQKVFIIRKSLLDELMEVQHP | 2.27 |
| SLGKQKVFIIRKSLLDELMEVQHG | 1.68 |
| SLGKQKVFIIRKSLLDELMEVQHH | 1.36 |
| SLGKQKVFIIRKSLLDELMEVQHR | 2.03 |
| SLGKQKVFIIRKSLLDELMEVQHS | 2.25 |
| SLGKQKVFIIRKSLLDELMEVQHD | 2.65 |
| SLGKQKVFIIRKSLLDELMEVQHK | 2.4 |
| SLGKQKVFIIRKSLLDELMEVQHY | 2.74 |

| Variant | protein stability index |
| --- | --- |
| SLGKQKVFIIRKSLLDELMEVQHQ | 2.75 |
| SLGKQKVFIIRKSLLDELMEVQHC | 2.09 |
| SLGKQKVFIIRKSLLDELMEVQHA | 1.8 |
| SLGKQKVFIIRKSLLDELMEVQHE | 1.71 |
| SLGKQKVFIIRKSLLDELMEVQHM | 2.2 |
| SLGKQKVFIIRKSLLDELMYVQHF | 2.9 |
| SLGKQKVFIIRKSLLDELMVVQHF | 1.83 |
| SLGKQKVFIIRKSLLDELMEVQYF | 2.64 |
| SLGKQKVFIIRKSLLDELMEVQGF | 1.86 |
| SLGKQKVFIIRKSLLDELMEVQWF | 3.71 |
| SLGKQKVFIIRKSLLDELMEVQPF | 2.65 |
| SLGKQKVFIIRKSLLDELMEVQRF | 1.66 |
| SLGKQKVFIIRKSLLDELMEVQVF | 3.33 |
| SLGKQKVFIIRKSLLDELMEVQCF | 2.69 |
| SLGKQKVFIIRKSLLDELMEVQEF | 1.9 |
| SLGKQKVFIIRKSLLDELMEVQAF | 2.24 |
| SLGKQKVFIIRKSLLDELMEVQFF | 1.87 |
| SLGKQKVFIIRKSLLDELMEVQKF | 1.41 |
| SLGKQKVFIIRKSLLDELMEVQDF | 1.67 |
| SLGKQKVFIIRKSLLDELMEVQQF | 2.31 |
| SLGKQKVFIIRKSLLDELMEVQTF | 2.07 |
| SLGKQKVFIIRKSLLDELMEVQMF | 1.69 |
| SLGKQKVFIIRKSLLDELMEVQSF | 1.79 |
| SLGKQKVFIIRKSLLDELMEVQIF | 2.72 |
| SLGKQKVFIIRKSLLDELMEVQNF | 2.52 |
